Data on 3 molecules can be found in patent US20200247855A1, “THERAPY AND DIAGNOSTICS” (OXFORD UNIVERSITY INNOVATION LIMITED, priority 2017, published 2020).

Assay [1] deals with T1, CCL19_HUMAN (Homo sapiens, UniProt Q99731).
T1 sequence (Q99731 22-98): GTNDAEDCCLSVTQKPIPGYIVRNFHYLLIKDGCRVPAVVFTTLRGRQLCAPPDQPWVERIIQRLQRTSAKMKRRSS
The assay can be described thus: Biolayer interferometry (BLI) binding. The procedure, abridged:
(§1)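 First, His-tagged tick CKBP is immobilised on a Ni-NTA tip. Second, chemokine is applied at 300 nM to screen for binding. Third, positive pairs are titrated with varying chemokine doses and association/dissociation fits give Kd in molar units.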

The target in assay [2] is T2, CCL1_HUMAN (Homo sapiens, UniProt P22362).
T2 sequence (P22362 24-96): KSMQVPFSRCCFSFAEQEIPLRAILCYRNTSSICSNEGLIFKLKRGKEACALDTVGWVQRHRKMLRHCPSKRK
The experiment in a line: Biolayer interferometry (BLI) binding. A digest of the protocol: as §1

Assay [3] has as its target CCL13_HUMAN (Homo sapiens, UniProt Q99616). The assay can be described thus: Biolayer interferometry (BLI) binding. A digest of the protocol: as §1
Assay [4] deals with T3, CCL24_HUMAN (Homo sapiens, UniProt O00175).
T3 sequence (O00175 27-119): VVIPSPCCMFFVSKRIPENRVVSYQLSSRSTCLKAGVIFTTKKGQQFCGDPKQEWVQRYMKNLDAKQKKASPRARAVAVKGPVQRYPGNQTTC
The experiment in a line: Biolayer interferometry (BLI) binding. The procedure, abridged:
as §1

In assay [5] the target is T4, CCL27_HUMAN (Homo sapiens, UniProt Q9Y4X3).
T4 sequence (Q9Y4X3 25-112): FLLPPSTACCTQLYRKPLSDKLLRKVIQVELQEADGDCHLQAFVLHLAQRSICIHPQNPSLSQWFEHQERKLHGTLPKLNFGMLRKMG
The assay can be described thus: Biolayer interferometry (BLI) binding. The procedure, abridged:
as §1

Assay [6] concerns the target T5, CCL17_HUMAN (Homo sapiens, UniProt Q92583).
T5 sequence (Q92583 24-94): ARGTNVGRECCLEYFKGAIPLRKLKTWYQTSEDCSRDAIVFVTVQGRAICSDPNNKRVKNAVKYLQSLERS
The experiment in a line: Biolayer interferometry (BLI) binding. A digest of the protocol:
as §1

For assay [7], the target named is CCL11_HUMAN (Homo sapiens, UniProt P51671). The experiment in a line: Biolayer interferometry (BLI) binding. A digest of the protocol: as §1
The target in assay [8] is T6, CCL18_HUMAN (Homo sapiens, UniProt P55774).
T6 sequence (P55774 21-89): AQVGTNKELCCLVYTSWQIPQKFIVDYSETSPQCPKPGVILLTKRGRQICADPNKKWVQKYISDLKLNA
The assay can be described thus: Biolayer interferometry (BLI) binding. The procedure, abridged: as §1

In assay [9] the target is T7, CCL22_HUMAN (Homo sapiens, UniProt O00626).
T7 sequence (O00626 25-93): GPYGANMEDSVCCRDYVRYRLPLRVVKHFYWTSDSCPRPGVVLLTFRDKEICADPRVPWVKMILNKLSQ
The experiment in a line: Biolayer interferometry (BLI) binding. The procedure, abridged: as §1

The target in assay [10] is CCL2_HUMAN (Homo sapiens, UniProt P13500). The assay can be described thus: Biolayer interferometry (BLI) binding. A digest of the protocol:
as §1

The target of assay [11] is T8, CCL15_HUMAN (Homo sapiens, UniProt Q16663).
T8 sequence (Q16663 22-113): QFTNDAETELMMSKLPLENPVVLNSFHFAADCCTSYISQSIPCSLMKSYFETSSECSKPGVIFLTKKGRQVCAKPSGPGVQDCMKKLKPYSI
The following applies: read-out: Kd, CCL15_HUMAN, previously described evasins; data obtained from publications [20-22,32]; cited from earlier work.

The target in assay [12] is CCL20_HUMAN (Homo sapiens, UniProt P78556). The following applies: data obtained from publications [20-22,32]; cited from earlier work.
Chain of CCL20_HUMAN (P78556 27-96): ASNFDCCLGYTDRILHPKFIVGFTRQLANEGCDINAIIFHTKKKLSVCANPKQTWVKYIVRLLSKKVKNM

Chain of CCL13_HUMAN (Q99616 17-98): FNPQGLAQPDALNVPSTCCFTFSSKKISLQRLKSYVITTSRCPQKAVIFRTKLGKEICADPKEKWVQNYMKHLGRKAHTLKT
Chain of CCL2_HUMAN (P13500 24-99): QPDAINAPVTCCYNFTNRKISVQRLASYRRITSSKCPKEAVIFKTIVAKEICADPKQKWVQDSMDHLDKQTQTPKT
Chain of CCL11_HUMAN (P51671 24-97): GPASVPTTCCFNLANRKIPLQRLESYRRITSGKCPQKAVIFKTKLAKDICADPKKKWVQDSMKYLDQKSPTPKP

B1: P1243_AMBAM: tick CKBP, Amblyomma americanum; AAM-02 stated identical (protein, listed as Amblyomma americanum)
chain: RNHTEDNSTEYYDYEEARCACPARHLNNTNGTVLKLLGCHYFCNGTLCTAPDGYPCYNLTAQQVRTLTTYPNTSCAVGVCMKGTCVKNGTMEQCFKTP
Turning to B1, the Kd in [1] is 0.592 nM; in [2], 21.3 nM; in assay [3], 0.788 nM; in assay [4], 7.39 nM; in assay [5], 15.1 nM; in assay [6] it was 0.734 nM. Moreover, the Kd in assay [7] came to 6.03 nM; in assay [8], 0.00501 nM; in assay [9], 22.3 nM.

B2: P672_RHIPU: tick CKBP, Rhipicephalus pulchellus (protein, listed as Rhipicephalus pulchellus)
chain: VCEVSEQEGVGEDNATEDEDYEDFFKPVTCYFANSTVGPLRPPNCTVVCTNNTAWWNDTKSDGGHCYSEYRPEKRTHSREIYNCTIGVCGNGTCIANHTYADCW
As to B2, the Kd in assay [10] was determined as 9.1 nM.

B3: EVASIN4: previously described tick CKBP evasin 4, from Rhipicephalus sanguineus (protein, listed as Rhipicephalus sanguineus)
chain: EVPQMTSSSAPDLEEEDDYTAYAPLTCYFTNSTLGLLAPPNCSVLCNSTTTWFNETSPNNASCLLTVDFLTQDAILQENQPYNCSVGHCDNGTCAGPPRHAQCW
As to B3, the Kd in assay [11] was 2.31 nM. The “Kd, CCL20_HUMAN, previously described evasins” value in assay [12] is listed as “No Binding”.
